Values of other authors, collected in patent publication US7557183B2, “Polyethylene glycol linked GLP-1 compounds” (Eli Lilly and Company, priority 2003, dated 2009).

Settings: in vivo

In the case of “GLP-1(7-37): native truncated GLP-1 peptide, SEQ ID NO: 1”, the serum half-life is listed as 3 to 5 min.
